Patent US20060183195A1

What was measured:
[1] = biological target: recombinant soluble human CD4 (human) (UniProt P01730); assay: SPR, sCD4 amine-coupled to sensor chip, antibody flowed over
[2] = biological target: native human CD4 on the cell surface (human) (UniProt P01730); assay: flow cytometry, serial dilutions on SupT1 cells, half-maximal fluorescence

koff [1] [s⁻¹]	Ka [2] [M⁻¹]	Substance
4.2e-05	–	Leu3a (antibody)
–	5e+09	chimeric Leu3a (antibody)
